The results in this text go back to patent US20130273029A1 (Novartis, published 2013).

Residue numbers refer to the chain shown, from its start. Like-named read-outs stand apart in the source and are kept apart here.

One may read the Kd as the concentration at which binding is half-saturated. Low values mean tighter binding, high ones weaker binding. What is called EC50 (read off the curve) is the concentration at which the effect is half-maximal. As usually defined, the EC50 is the concentration at which the effect is half-maximal. Read a high EC50 as a less potent agent.

Test [1] has as its target T1, Human HER3, endogenous, on human cancer cell lines (SK-Br-3, MCF7, BT-474) (human, UniProt P21860 20-1342). Description: cell-based or functional assay.
In test [2] the target is T1, Human HER3, endogenous, on human cancer …. Description: cell-based or functional assay. This is another data set of the same source.
Test [3] has the same target. Description: cell-based or functional assay. The source holds these as a separate data set.
In test [4] the target is T2, Hu HER3: CD33-[Human HER3, residues 20-640]-TAG (human, UniProt P21860 20-640).
T2 construct: also called hu HER3-Tag; HER3-Tag; not shown: C-terminal TAG (e.g., FLAG TAG)
T2 sequence (P21860 20-640): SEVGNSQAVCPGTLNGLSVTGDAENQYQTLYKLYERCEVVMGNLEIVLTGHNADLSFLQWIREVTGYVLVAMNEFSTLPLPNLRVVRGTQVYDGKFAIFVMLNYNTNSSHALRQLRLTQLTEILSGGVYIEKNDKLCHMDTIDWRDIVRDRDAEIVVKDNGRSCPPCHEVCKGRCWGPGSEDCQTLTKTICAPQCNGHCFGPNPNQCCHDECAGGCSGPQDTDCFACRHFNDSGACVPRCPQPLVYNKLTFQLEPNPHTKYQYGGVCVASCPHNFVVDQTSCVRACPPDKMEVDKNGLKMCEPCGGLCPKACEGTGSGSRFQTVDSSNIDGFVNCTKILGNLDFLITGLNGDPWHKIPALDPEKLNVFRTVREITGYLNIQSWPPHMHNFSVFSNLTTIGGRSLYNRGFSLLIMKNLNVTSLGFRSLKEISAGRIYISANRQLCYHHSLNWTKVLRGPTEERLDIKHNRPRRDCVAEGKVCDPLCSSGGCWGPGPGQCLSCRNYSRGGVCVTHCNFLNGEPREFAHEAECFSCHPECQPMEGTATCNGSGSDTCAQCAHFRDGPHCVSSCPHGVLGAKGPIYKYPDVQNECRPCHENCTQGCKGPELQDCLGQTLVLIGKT
Description: SET, IgG vs soluble HER3-Tag. A digest of the protocol: (§1)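 Affinity measured by solution equilibrium titration, with read-out moved from classical ELISA to ECL-based detection for sensitivity. Titration data were fitted with customized fitting models.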

Test [5] concerns the target T3, Cyno HER3: CD33-[Cyno HER3, residues 20-643]-TAG (cynomolgus, UniProt G7PIG5 20-643).
T3 construct: also called cy HER3-Tag; not shown: C-terminal TAG (e.g., FLAG TAG)
Nature of the test: SET, IgG vs soluble HER3-Tag. In outline: as §1

Test [6] has as its target T4, Mu HER3: CD33-[Murine HER3, residues 20-643]-TAG (murine, UniProt Q61526 20-643).
T4 construct: also called mu HER3-Tag; not shown: C-terminal TAG (e.g., FLAG TAG)
Description: SET, IgG vs soluble HER3-Tag. In outline:
as §1

Test [7] deals with T5, Rat HER3: CD33-[Rat HER3, residues 20-643]-TAG (rat, UniProt Q62799 20-643).
T5 construct: also called ra HER3-Tag; not shown: C-terminal TAG (e.g., FLAG TAG)
T5 sequence (Q62799 20-643): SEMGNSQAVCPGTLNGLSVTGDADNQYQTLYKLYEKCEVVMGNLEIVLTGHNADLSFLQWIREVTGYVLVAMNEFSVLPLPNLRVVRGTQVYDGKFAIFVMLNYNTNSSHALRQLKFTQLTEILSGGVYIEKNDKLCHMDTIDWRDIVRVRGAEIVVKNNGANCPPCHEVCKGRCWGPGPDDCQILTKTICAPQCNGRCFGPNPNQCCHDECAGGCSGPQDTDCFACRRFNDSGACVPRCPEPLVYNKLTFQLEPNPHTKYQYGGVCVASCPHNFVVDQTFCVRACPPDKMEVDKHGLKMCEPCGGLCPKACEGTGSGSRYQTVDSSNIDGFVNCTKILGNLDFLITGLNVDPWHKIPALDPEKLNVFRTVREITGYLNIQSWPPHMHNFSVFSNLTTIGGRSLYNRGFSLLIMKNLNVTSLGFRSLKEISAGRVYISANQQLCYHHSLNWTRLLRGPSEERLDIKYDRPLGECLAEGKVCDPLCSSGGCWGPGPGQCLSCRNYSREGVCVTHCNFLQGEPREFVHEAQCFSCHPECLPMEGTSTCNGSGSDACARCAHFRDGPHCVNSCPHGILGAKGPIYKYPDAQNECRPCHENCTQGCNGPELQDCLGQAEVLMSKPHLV
Nature of the test: SET, IgG vs soluble HER3-Tag. A digest of the protocol:
as §1

For test [8], the target named is T2, Hu HER3: CD33-[Human HER3, residues …. Description: binding ELISA on human HER3 (WT), IgG titrated (Example 7); fluorescence 435/530 nm.
In test [9] the target is T6, HER3 D2: CD33-[Human HER3, residues 185-329]-TAG (human, UniProt P21860 185-329).
T6 construct: also called D2-Tag; isolated D2 protein; not shown: C-terminal TAG (e.g., FLAG TAG)
T6 sequence (P21860 185-329): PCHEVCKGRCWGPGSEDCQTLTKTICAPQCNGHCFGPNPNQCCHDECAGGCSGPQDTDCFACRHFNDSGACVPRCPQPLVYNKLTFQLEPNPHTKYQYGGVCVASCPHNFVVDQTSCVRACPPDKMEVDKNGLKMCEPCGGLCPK
Nature of the test: ELISA on coated recombinant protein, antibody titrated (Example 7); readout on the sheet is Fluorescence Units. (In general: ELISA stands for enzyme-linked immunosorbent assay.)

Test [10] has as its target T7, HER3 D3-4: CD33-[Human HER3, residues 330-643]-TAG (human, UniProt P21860 330-643).
T7 construct: also called D3-4-Tag; isolated domains 3-4; not shown: C-terminal TAG (e.g., FLAG TAG)
The test is described as above.

The target of test [11] is T8, HER3 D4: CD33-[Human HER3, residues 496-643]-TAG (human, UniProt P21860 496-643).
T8 construct: also called D4-Tag; isolated domain 4; not shown: C-terminal TAG (e.g., FLAG TAG)
T8 sequence (P21860 496-643): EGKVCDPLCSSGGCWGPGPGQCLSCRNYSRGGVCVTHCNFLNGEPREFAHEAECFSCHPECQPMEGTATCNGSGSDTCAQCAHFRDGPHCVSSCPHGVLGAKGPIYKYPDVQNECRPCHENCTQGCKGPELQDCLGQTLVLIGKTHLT
Described as above.

The target in test [12] is T9, HER3 on JTC12 cells.
T9 construct: whole, on cells
Description: FACS titration on JTC12 cells.

Test [13] concerns the target T10, HER3 on B16-F10 cells (UniProt Q61526 20-1339).
T10 construct: whole, on cells
Description: FACS titration on B16-F10 cells.

Test [14] addresses T1, Human HER3, endogenous, on human cancer …. Nature of the test: FACS titration on SK-Br-3 cells. As to the method: The binding of antibodies to endogenous human antigen expressed on human cancer cells was accessed by FACS. In order to determine antibody EC₅₀ values SK-Br-3 cells were harvested with accutase and diluted to 1×10⁶ cells/mL in FACS buffer (PBS/3% FBS/0.2% NaN₃). 1×10⁵ cells/well were added to each well of a 96-well plate (Nunc) and centrifuged at 210 g for 5 minutes at 4° C. before removing the supernatant. Serial dilutions of test antibodies (diluted in 1:4 dilution steps with FACS buffer) were added to the pelleted cells and incubated for 1 hour on ice. The cells were washed and pelleted three times with 100 μL FACS buffer. PE conjugated goat anti-human IgG (Jackson ImmunoResearch) diluted 1/200 with FACS buffer were added to the cells and incubated on ice for 1 hour. Additional washing steps were performed three times with 100 μL FACS buffer followed by centrifugation steps at 210 g for 5 minutes at 4° C. Finally, cells were resuspended in 200 μL FACS buffer and fluorescence values were measured with a FACSArray (BD Biosciences). The amount of cell surface bound anti-HER3 antibody was assessed by measuring the mean channel fluorescence.
The ability of the identified antibodies to bind HER3 expressing cells was determined by calculating EC₅₀ values for their binding to the HER2 amplified cell line SK-Br-3 (see FIG. 2 and Table 4).

Test [15] has as its target T6, HER3 D2: CD33-[Human HER3, residues …. Nature of the test: ELISA on coated recombinant protein, antibody titrated (Example 7); readout on the sheet is Fluorescence Units. The source holds these as a separate data set.
The target of test [16] is T7, HER3 D3-4: CD33-[Human HER3, residues …. The test is described as above. This is another data set of the same source.
Test [17] addresses T8, HER3 D4: CD33-[Human HER3, residues …. The description is as above. This is another data set of the same source.

T1 sequence (P21860 20-1342): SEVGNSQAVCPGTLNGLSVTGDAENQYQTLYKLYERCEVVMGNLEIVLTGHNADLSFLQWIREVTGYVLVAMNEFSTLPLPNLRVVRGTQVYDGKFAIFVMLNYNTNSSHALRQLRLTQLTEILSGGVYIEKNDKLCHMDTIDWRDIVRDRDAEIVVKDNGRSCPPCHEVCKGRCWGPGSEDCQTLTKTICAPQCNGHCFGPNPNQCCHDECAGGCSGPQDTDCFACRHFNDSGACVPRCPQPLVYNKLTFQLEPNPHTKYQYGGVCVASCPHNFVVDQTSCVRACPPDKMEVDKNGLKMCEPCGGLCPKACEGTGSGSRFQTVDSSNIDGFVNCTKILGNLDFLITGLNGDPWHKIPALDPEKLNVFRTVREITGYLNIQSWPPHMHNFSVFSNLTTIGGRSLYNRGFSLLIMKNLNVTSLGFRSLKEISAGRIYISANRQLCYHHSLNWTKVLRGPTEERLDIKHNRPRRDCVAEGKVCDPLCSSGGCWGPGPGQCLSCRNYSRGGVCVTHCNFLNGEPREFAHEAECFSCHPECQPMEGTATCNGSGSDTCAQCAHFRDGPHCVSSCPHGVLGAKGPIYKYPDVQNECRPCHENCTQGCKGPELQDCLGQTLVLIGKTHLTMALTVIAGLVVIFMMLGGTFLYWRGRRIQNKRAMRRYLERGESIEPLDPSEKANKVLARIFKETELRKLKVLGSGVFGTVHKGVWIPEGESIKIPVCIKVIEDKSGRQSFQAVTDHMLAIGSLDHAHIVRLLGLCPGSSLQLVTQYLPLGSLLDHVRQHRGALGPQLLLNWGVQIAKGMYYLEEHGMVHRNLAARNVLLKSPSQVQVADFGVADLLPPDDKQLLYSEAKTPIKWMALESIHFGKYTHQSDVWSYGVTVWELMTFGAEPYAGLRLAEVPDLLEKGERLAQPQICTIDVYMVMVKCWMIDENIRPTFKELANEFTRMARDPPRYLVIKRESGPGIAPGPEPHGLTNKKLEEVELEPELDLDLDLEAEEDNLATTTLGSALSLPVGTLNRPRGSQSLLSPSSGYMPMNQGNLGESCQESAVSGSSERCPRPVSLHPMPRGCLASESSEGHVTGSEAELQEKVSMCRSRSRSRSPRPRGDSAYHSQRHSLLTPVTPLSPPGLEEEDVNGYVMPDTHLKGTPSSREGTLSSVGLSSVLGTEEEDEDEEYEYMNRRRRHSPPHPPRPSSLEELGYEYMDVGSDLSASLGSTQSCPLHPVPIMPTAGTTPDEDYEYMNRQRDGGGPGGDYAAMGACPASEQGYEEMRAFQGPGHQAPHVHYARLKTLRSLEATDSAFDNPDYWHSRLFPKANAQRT
T4 sequence (Q61526 20-643): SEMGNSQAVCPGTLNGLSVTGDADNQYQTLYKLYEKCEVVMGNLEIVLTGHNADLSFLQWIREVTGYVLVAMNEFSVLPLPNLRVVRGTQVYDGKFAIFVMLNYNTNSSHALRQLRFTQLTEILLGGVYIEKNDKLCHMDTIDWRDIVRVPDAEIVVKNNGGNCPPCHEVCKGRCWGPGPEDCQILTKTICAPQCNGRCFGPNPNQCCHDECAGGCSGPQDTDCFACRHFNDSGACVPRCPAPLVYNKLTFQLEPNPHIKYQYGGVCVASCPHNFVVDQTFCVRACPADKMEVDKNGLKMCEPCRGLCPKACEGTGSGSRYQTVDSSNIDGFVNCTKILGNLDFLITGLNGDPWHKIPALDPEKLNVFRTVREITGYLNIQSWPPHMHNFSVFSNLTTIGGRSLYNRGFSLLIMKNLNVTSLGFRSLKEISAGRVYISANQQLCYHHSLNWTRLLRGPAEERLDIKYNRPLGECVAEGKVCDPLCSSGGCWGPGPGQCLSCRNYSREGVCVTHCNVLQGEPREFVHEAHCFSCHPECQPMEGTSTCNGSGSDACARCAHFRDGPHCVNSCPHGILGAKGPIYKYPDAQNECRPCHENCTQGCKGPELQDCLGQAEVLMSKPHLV
T3 sequence (G7PIG5 entry or part of it): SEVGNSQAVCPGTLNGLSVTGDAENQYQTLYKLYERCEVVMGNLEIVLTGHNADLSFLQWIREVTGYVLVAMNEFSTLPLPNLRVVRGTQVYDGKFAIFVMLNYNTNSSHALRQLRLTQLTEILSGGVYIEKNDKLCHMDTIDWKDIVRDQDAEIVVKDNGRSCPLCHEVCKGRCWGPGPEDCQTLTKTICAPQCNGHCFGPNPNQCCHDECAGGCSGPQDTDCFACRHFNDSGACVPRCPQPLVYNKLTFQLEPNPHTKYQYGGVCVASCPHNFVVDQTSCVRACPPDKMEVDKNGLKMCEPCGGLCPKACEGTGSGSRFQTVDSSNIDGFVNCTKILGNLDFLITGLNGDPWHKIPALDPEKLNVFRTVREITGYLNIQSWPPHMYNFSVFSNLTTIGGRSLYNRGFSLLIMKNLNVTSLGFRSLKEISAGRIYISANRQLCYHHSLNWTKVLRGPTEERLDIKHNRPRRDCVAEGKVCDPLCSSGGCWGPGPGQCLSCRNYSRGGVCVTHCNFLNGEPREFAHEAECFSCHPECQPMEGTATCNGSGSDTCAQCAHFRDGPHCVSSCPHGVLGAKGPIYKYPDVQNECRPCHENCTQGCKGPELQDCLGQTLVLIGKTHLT
T7 sequence (P21860 330-643): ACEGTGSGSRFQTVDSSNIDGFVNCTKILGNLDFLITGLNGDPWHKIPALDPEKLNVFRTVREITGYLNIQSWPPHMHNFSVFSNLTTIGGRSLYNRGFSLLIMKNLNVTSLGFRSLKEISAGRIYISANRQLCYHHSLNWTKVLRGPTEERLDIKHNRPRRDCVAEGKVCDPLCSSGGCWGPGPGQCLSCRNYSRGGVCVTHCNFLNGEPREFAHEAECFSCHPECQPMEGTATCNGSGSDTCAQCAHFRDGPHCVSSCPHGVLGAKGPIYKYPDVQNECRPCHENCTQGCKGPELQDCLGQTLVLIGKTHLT

B1: MOR12616 (antibody, human IgG1, kappa, V domains shown)
VH: QVQLVQSGAEVKKPGESLKISCKGSGYSFTNSWVAWVRQMPGKGLEWMGIIYPGNSDTIYSPSFQGQVTISADKSISTAYLQWSSLKASDTAMYYCARVHIIQPPSAWSYNAMDVWGQGTLVTVSS
VL: DIQMTQSPSSLSASVGDRVTITCRASQSISTYLNWYQQKPGKAPKLLIFGASNLQSGVPSRFSGSGSGTDFTLTISSLQPEDFATYYCQQSITELFTFGQGTKVEIKR
notes: tested as IgG
With B1, in test [1], the “BT474 pHER3 % inhibition” value was 58%, the “BT474 pHER3 IC50” value came out at 436 pM, the “MCF7 pHER3 % inhibition” value amounted to 76% and the “MCF7 pHER3 IC50” value came out at 245 pM. Further, in test [1], the “SK-Br-3 pHER3 % inhibition” value came to 75% and the “SK-Br-3 pHER3 IC50” value was 142 pM. For the same molecule, in test [2], the “BT-474 pAkt (S473) % inhibition” value came out at 78%, the “BT-474 pAkt (S473) IC50” value is 316 pM, the “MCF7 pAkt (S473) % inhibition” value was 80% and the “MCF7 pAkt (S473) IC50” value was found to be 442 pM. Moreover, in [2], the “SK-Br-3 pAkt (S473) % inhibition” value was determined as 89% and the “SK-Br-3 pAkt (S473) IC50” value came out at 88 pM. Also, in [3], the “BT-474 proliferation % inhibition” value was 45%, the “BT-474 proliferation IC50” value came out at 0.635 nM, the “MCF7 proliferation % inhibition” value worked out at 32% and the “MCF7 proliferation IC50” value stood at 0.415 nM. Further, in [3], the “SK-Br-3 proliferation % inhibition” value is 48% and the “SK-Br-3 proliferation IC50” value was determined as 0.123 nM. In test [4], this molecule returned a Kd of 0.02 nM. In [5], this molecule gave an equilibrium dissociation constant (Kd) of 0.074 nM. Also, in [6], the equilibrium dissociation constant (Kd) came out at 0.041 nM. The molecule further registered a Kd in test [7] of 0.122 nM. In [8], the “EC50 (read off the curve)” value was approximately 0.1 nM. Further, the “EC50 (read off the curve)” value in test [9] was approximately 0.2 µg/mL. Moreover, the binding result in [10] is recorded as “no binding (tested: 10 µg/ml)”. Further, the binding result in test [11] was “no binding (tested: 10 µg/ml)”.

B2: MOR14536 (antibody, human IgG1, kappa, V domains shown)
VH: B1 VH with Q1E, T30S, S32Y, V34I, N55Q
VL: B1 VL with F49Y
notes: tested as IgG
On to B2, for which, in test [1], the “MCF7 pHER3 % inhibition” value amounted to 83%. Further, the “MCF7 pHER3 IC50” value in test [1] is 379 pM. Also, the “SK-Br-3 pHER3 % inhibition” value in test [1] stood at 76%. Also, the “SK-Br-3 pHER3 IC50” value in test [1] was determined as 239 pM. In addition, in test [3], the “SK-Br-3 proliferation % inhibition” value turned out to be 56%. Further, in test [3], the “SK-Br-3 proliferation IC50” value stood at 0.181 nM. Moreover, the dissociation constant Kd in [4] was found to be 0.072 nM; in [5] it was 0.044 nM; in test [6] it was 0.029 nM; in test [7] it was 0.064 nM. Further, the EC50 in test [12] worked out at 1.36 nM; in test [13], 0.625 nM; in test [14] it was 1.27 nM.

B3: MOR12925 (antibody, human IgG1, kappa, V domains shown)
VH: B1 VH with T30S, S32Y, V34I
VL: B1 VL
notes: tested as IgG
With B3, in test [1], the “BT474 pHER3 % inhibition” value is 63%, the “BT474 pHER3 IC50” value was determined as 2160 pM, the “MCF7 pHER3 % inhibition” value amounted to 81% and the “MCF7 pHER3 IC50” value came out at 327 pM. In [1], the “SK-Br-3 pHER3 % inhibition” value is 75% and the “SK-Br-3 pHER3 IC50” value was determined as 136 pM. Also, in [2], the “BT-474 pAkt (S473) % inhibition” value turned out to be 80%, the “BT-474 pAkt (S473) IC50” value is 255 pM, the “MCF7 pAkt (S473) % inhibition” value was found to be 82% and the “MCF7 pAkt (S473) IC50” value was 295 pM. Moreover, in test [2], the “SK-Br-3 pAkt (S473) % inhibition” value was determined as 88% and the “SK-Br-3 pAkt (S473) IC50” value was 93 pM. Also, in test [3], the “BT-474 proliferation % inhibition” value was found to be 47%, the “BT-474 proliferation IC50” value was determined as 0.522 nM, the “MCF7 proliferation % inhibition” value was 47% and the “MCF7 proliferation IC50” value amounted to 0.604 nM. In test [3], the “SK-Br-3 proliferation % inhibition” value worked out at 40% and the “SK-Br-3 proliferation IC50” value is 0.101 nM. In test [4], this molecule had a Kd of 0.028 nM. The molecule further yielded a Kd in test [5] of 0.074 nM. The molecule further came in with an equilibrium dissociation constant (Kd) in test [6] of 0.038 nM. The molecule further displayed a dissociation constant (Kd) in [7] of 0.1 nM. In addition, the “EC50 (read off the curve)” value in test [8] was approximately 0.1 nM. Moreover, the 50% effective concentration (EC50 (read off the curve)) in [15] was approximately 0.1 µg/mL. Moreover, in test [16], the binding result is listed as “no binding (tested: 10 µg/ml)”. Also, the binding result in [17] was “no binding (tested: 10 µg/ml)”.

B4: MOR12510 (antibody, human IgG1, kappa, V domains shown)
VH: B1 VH
VL: B1 VL with S91D, T93D, L95P, F96W
notes: tested as IgG
Take B4: in test [1], the “BT474 pHER3 % inhibition” value is 85%, the “BT474 pHER3 IC50” value was 34 pM, the “MCF7 pHER3 % inhibition” value is 73% and the “MCF7 pHER3 IC50” value amounted to 450 pM. Further, in test [1], the “SK-Br-3 pHER3 % inhibition” value is 78% and the “SK-Br-3 pHER3 IC50” value amounted to 157 pM. For the same molecule, in test [3], the “MCF7 proliferation % inhibition” value turned out to be 25%, the “MCF7 proliferation IC50” value was found to be 0.483 nM, the “SK-Br-3 proliferation % inhibition” value worked out at 44% and the “SK-Br-3 proliferation IC50” value is 0.355 nM. In [4], this molecule gave a Kd of 0.055 nM. This molecule also returned a Kd in test [5] of 0.4 nM. In [6], the equilibrium dissociation constant (Kd) worked out at 0.2 nM. In [7], this molecule showed an equilibrium dissociation constant (Kd) of 0.75 nM.

B5: MOR14535 (antibody, human IgG1, kappa, V domains shown)
VH: B1 VH with Q1E, N31T, S32T, N55L
VL: B1 VL with F49Y
notes: tested as IgG
As for B5, the “MCF7 pHER3 % inhibition” value in [1] came out at 73%. In addition, the “MCF7 pHER3 IC50” value in [1] is 533 pM. For the same molecule, the “SK-Br-3 pHER3 % inhibition” value in test [1] worked out at 76%. In addition, the “SK-Br-3 pHER3 IC50” value in [1] was determined as 231 pM. For the same molecule, the “SK-Br-3 proliferation % inhibition” value in [3] was 66%. In addition, the “SK-Br-3 proliferation IC50” value in [3] is 0.271 nM. Also, the Kd in test [4] amounted to 0.235 nM; in test [5] it was 0.215 nM; in [6], 0.125 nM; in test [7], 0.315 nM. The values for the concentration for a half-maximal effect (EC50) in test [12], in test [13] and in [14] were 65.1 nM, 0.524 nM and 2.08 nM, respectively.
